Experimental data as given in patent US20140303084.

T1: compound 5
T1 chain: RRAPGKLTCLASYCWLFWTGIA

T2: compound 1 (not fully specified)
T2 chain: KLTCLASYCWLF


Legend:
compound 5 = target: T1, compound 5
compound 1 = target: T2, compound 1

| Protein | Δ kM of FVIIa, FXa generation assay (compound 5) | Δ kcat of FVIIa, FXa generation assay (compound 5) [fold] | Vmax, FXa generation assay (compound 1) |
| --- | --- | --- | --- |
| human Factor VIIa (protein) ANAFLEELRPGSLERECKEEQCSFEEAREIFKDAERTKLFWISYSDGDQCASSPCQNGGSCKDQLQSYICFCLPAFEGRNCETHKDDQLICVNENGGCEQYCSDHTGTKRSCRCHEGYSLLADGVSCTPTVEYPCGKIPILEKRNASKPQGRIVGGKVCPKGECPWQVLLLVNGAQLCGGTLINTIWVVSAAHCFDKIKNWRNLIAVLGEHDLSEHDGDEQSRRVAQVIIPSTYVPGTTNHDIALLRLHQPVVLTDHVVPLCLPERTFSERTLAFVRFSLVSGWGQLLDRGATALELMVLNVPRLMTQDCLQQSRKVGDSPNITEYMFCAGYSDGSKDSCKGDSGGPHATHYRGTWYLTGIVSWGQGCATVGHFGVYTRVSQYIEWLQKLMRSEPRPGVLLRAPFP | 0.3 | 2420 | – |
| mouse FIXa (protein) YNSGKLEEFVRGNLERECIEERCSFEEAREVFENTEKTTEFWKQYVDGDQCESNPCLNGGICKDDISSYECWCQVGFEGRNCELDATCNIKNGRCKQFCKNSPDNKVICSCTEGYQLAEDQKSCEPTVPFPCGRASISYSSKKITRAETVFSNMDYENSTEAVFIQDDITDGAILNNVTESSESLNDFTRVVGGENAKPGQIPWQVILNGEIEAFCGGAIINEKWIVTAAHCLKPGDKIEVVAGEYNIDKKEDTEQRRNVIRTIPHHQYNATINKYSHDIALLELDKPLILNSYVTPICVANREYTNIFLKFGSGYVSGWGKVFNKGRQASILQYLRVPLVDRATCLRSTTFTIYNNMFCAGYREGGKDSCEGDSGGPHVTEVEGTSFLTGIISWGEECAMKGKYGIYTKVSRYVNWIKEKTKLT | – | – | the Vmax is greatly reduced with mFIXa compared to hFIXa |
